Target: hCXCR1 (human) (UniProt P25024)
Test: cell-based or functional assay

Chain of hCXCR1 (human) (P25024 whole entry): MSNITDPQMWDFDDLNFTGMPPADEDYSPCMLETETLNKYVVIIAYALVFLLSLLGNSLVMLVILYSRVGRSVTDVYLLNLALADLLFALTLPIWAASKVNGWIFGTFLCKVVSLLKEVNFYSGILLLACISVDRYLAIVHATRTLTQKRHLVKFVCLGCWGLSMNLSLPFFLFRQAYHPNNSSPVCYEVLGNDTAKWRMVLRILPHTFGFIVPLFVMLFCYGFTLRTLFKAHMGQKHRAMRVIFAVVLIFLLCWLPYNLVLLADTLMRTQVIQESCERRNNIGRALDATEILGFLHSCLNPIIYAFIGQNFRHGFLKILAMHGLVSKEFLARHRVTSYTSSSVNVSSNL

| EC50, Aequorin assay | EC50, agonist activity in an Aequorin assay | Substance |
| --- | --- | --- |
| 4.2 nM |  | recombinant native IL-8 (from UniProt P10145 28-99) |
|  | 6.1 nM | biotinIL-8 (6-78) (from UniProt P10145 28-99) (ligand) |

Source: EP2718312B1
